According to US20190314452A1 (YUHAN, published 2019):
Values belong to the binder of their own block, whether it stands above or below them.

Biological target: human GLP-1 receptor (human, UniProt P43220 24-463)
Assay: cell-based or functional assay

in vitro GLP-1 activity (intracellular cAMP, EC50 compared): ~2 times higher than DFD69, DFD112 and DFD114
B1: DFD59: GLP1(GEG)-HyFc40 (Fc fusion)
chain: HGEGTFTSDVSSYLEEQAAKEFIAWLVKGGGEKEKEEQEERETKTPECPSHTQPLGVFLFPPKPKDTLMISRTPEVTCVVVDVSQEDPEVQFNWYVDGVEVHNAKTKPREEQFNSTYRVVSVLTVLHQDWLNGKEYKCKVSNKGLPSSIEKTISKAKGQPREPQVYTLPPSQEEMTKNQVSLTCLVKGFYPSDIAVEWESNGQPENNYKTTPPVLDSDGSFFLYSRLTVDKSRWQEGNVFSCSVMHEALHNHYTQKSLSLSLGK

in vitro GLP-1 activity (intracellular cAMP, EC50 compared): 2 to 3 times lower than the fusion proteins containing other GLP-1 mutant sequences
B2: DFD23 (Fc fusion)
chain: HGEGTFTSDVSSYLEGQAAKEFIAWLVKGRGEKEKEEQEERETKTPECPSHTQPLGVFLFPPKPKDTLMISRTPEVTCVVVDVSQEDPEVQFNWYVDGVEVHNAKTKPREEQFNSTYRVVSVLTVLHQDWLNGKEYKCKVSNKGLPSSIEKTISKAKGQPREPQVYTLPPSQEEMTKNQVSLTCLVKGFYPSDIAVEWESNGQPENNYKTTPPVLDSDGSFFLYSRLTVDKSRWQEGNVFSCSVMHEALHNHYTQKSLSLSLGKGGGGSGGGGSGGGGSHPIPDSSPLLQFGGQVRQRYLYTDDAQQTEAHLEIREDGTVGGAADQSPESLLQLKALKPGVIQILGVKTSRFLCQRPDGALYGSLHFDPEACSFREEIRPDGYNVYQSEAHGLPLHLPGNKSPHRDPAPRGPARFLPLPGLPPALPEPPGILAPQPPDVGSSDPLSMVTGLEAVRSPSYAS
